Kd, koff and kon data for 1 substance are collected here from patent publication US20250129163A1.

In the assay the target is FcγRIIIa-bio (UniProt P08637). The assay is described as follows: BLI (Fortebio), FcγRIIIa-bio immobilized on SA sensor, antibody 31.3-500 nM, 1:1 fit.
Sequence of UniProt P08637 (P08637 17-208 limits assumed): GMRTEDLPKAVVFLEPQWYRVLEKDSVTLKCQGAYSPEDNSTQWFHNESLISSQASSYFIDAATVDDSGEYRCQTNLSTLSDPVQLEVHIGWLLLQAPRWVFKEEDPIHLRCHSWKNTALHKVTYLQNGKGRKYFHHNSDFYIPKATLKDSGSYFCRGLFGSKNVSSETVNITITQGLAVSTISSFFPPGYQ

On to MEDI9447 (Oleclumab) (antibody), for which the Kd is 141 nM, the koff was found to be 0.0342 s⁻¹ and the kon was found to be 243000 M⁻¹ s⁻¹.
